{
  "source": "patent US6387681",
  "test_system": "NheI restriction endonuclease (R.NheI) (Neisseria mucosa heidelbergensis)",
  "test": "cleavage_in_vitro",
  "settings": "cell extract of clones #1 and #9; AvaI-linearized pBR322 cleaved into 1196 and 3165 bp fragments",
  "data": [
    {"sequence": "GCTAGC (double strand) [NheI site in AvaI-linearized pBR322]", "values": [
      {"measurement": "activity (units per gram wet cells)", "result": "1e+07"}
    ]}
  ]
}
